In US7615610B2, “Modified trafficking patterns for arrestin and G-protein-coupled receptors via arrestin-ubiquitin chimera” (Duke University, priority 2003, dated 2009):

How the values were obtained:
V2Rβ2CT = molecular target: T1, V2Rβ2CT (Homo sapiens, UniProt P07550+P30518); experiment: Confocal microscopy of arrestin trafficking with V2Rβ2CT in HEK-293 cells; assay type: cell-based; details: live HEK-293 cells expressing V2Rβ2CT, 15 min and longer
T1 construct: the first 342 amino acids of the V2R (Met1-Cys342); the last 72 amino acids of the β2AR (Leu342 to Leu 413); expressed in transfected cells; host or cells: HEK-293
Method: Twenty-four hours post-transfection cells were plated on collagen-coated 35 mm glass bottom plates. Cells were starved for at least 2 hrs in serum free medium prior to stimulation. After stimulation cells were fixed with 4% paraformaldehyde. For visualizing HA-tagged receptors, fixed cells were permeabilized with 0.01% Triton in PBS containing 2% BSA for 20 min and incubated at room temperature with 12CA5 antibody at 1:500 dilution. The secondary antibody, antimouse IgG conjugated to TexasRed, followed this. Antibody incubations were done for one hour followed by repeated washes using PBS. Cells expressing low and equivalent levels of the fluorescent proteins were carefully selected to examine YFP-β-arrestins. […] Live images were acquired using a heated (37° C.) microscope stage and collected sequentially using single line excitation (488 nm).

β2AR [1] = molecular target: T2, β2AR (Homo sapiens, UniProt P07550); experiment: Coimmunoprecipitation of YFP-β-arrestins with Flag-β2AR in COS-7 cells; assay type: binding; parameters: expressed in transfected cells; details: Flag-β2AR IP, 15 minutes of agonist treatment
Description: A) Stability of the ubiquitin chimera in COS-7 cells. […] The bands on the autorad were quantitated using Fluorimager and graphically represented in the figure. The zero time point represents 100% protein. The graph is an average of three independent experiments. B) Interaction of β-arrestin2-Ub chimera with β2AR. […] After stimulation or not the receptor was immunoprecipitated with anti-Flag beads in the absence (left panels) or presence (right panels) of the inhibitor NEM; the IP was blotted for YFP-β-arrestins with a monoclonal antibody to GFP (top panel). […] The blots are representative of similar blots from three independent experiments.
Immunoprecipitation and Irnmunoblofting—To detect ubiquitinated β-arrestin2, β-arrestin2 with a C-terminal Flag epitope was transiently transfected into COS-7 cells. Cells were serum starved for at least 2 hrs and then stimulated or not for the stipulated times with the appropriate agonists. Cells were solubilized in a lysis buffer (LB) containing 50 mM Hepes (pH7.5), 0.5% NP40, 250 mM NaCl, 2 mM EDTA, 10% (vlv) glycerol, 1 mM sodium orthovanadate, 1 mM sodium fluoride, 1 mM phenylmethylsulfonyl fluoride, leupeptin (5 μg/ml) aprotinin (5 μg/ml), pepstatin A (1 μg/ml) benzaminidine (100 μM) 2 μM MG132 and 10 mM NEM. Soluble extracts were mixed with FLAG M2 affinity beads and rotated at 4° C. overnight. […]

β2AR [2] = molecular target: T2, β2AR; experiment: Confocal microscopy of arrestin trafficking with β2AR in HEK-293 cells; assay type: cell-based; parameters: expressed in transfected cells; host or cells: HEK-293; details: for colocalization with internalized β2AR in endocytic vesicles: fixed HEK-293 cells, HA-β2AR, 15 min isoproterenol; for distribution of YFP fluorescence after isoproterenol: live HEK293 cells over expressing β2AR, 10 μM isoproterenol, 15-30 min
Method: Cells were starved for one hour in serum free media. […] Shown are representative confocal images of YFP-fluorescence followed in the same HEK-293 cells treated for 2, 15 and 30 min at 37° C.
HEK-293 cells were transiently transfected with HA-β2AR and YFP-βarrestin2 (A) or YFP-β-arrestin2-Ub (B). After isoproterenol treatment or not the cells were fixed, permeabilized and stained for receptor with the primary antibody 12CA5 and secondary antibody anti mouse IgG conjugated to Texas Red. Shown are confocal images where receptor is visualized in the Red channels and β-arrestin in the green channels. Colocalization of two proteins is seen as yellow in the overlay. The results are representative of three independent experiments.
HEK-293 cells on 10 cm dishes were transiently transfected with HA-β2AR, HA-V2R, HAβ2ARV2CT, or HAV2Rβ2CT, along with β-arr2-GFP, or YFP-βarrestin2, or YFP-β-arrestin2-Ub. Twenty-four hours post-transfection cells were plated on collagen-coated 35 mm glass bottom plates. Cells were starved for at least 2 hrs in serum free medium prior to stimulation. After stimulation cells were fixed with 4% paraformaldehyde. For visualizing HA-tagged receptors, fixed cells were permeabilized with 0.01% Triton in PBS containing 2% BSA for 20 min and incubated at room temperature with 12CA5 antibody at 1:500 dilution. The secondary antibody, antimouse IgG conjugated to TexasRed, followed this. Antibody incubations were done for one hour followed by repeated washes using PBS. Cells expressing low and equivalent levels of the fluorescent proteins were carefully selected to examine YFP-β-arrestins. Confocal images were obtained on Zeiss LSM510 laser scanning microscope using dual excitation (488, 568 nm) and emission (515-540 nm GFP, YFP; 590-610 nm, Texas red) filter sets. Live images were acquired using a heated (37° C.) microscope stage and collected sequentially using single line excitation (488 nm).

β2AR [3] = molecular target: T2, β2AR; experiment: Receptor internalization (loss of cell surface receptors, flow cytometry), β2AR
β2AR [4] = molecular target: T2, β2AR

reduction of internalization (β2AR [3]; pretreatment of cells with 200 μM MDC, data not shown) [%] | β2AR internalization (β2AR [3]; HEK293 cells, arrestin overexpressed with Flag-β2AR, 10 μM isoproterenol 30 min, mean±SEM) [%] | Compound | distribution of YFP fluorescence after AVP (V2Rβ2CT) | receptor-bound (coimmunoprecipitated) arrestin bands (β2AR [1]) | colocalization with internalized β2AR in endocytic vesicles (β2AR [2]) | distribution of YFP fluorescence after isoproterenol (β2AR [2]) | increase in amount of β2AR degradation (β2AR [4])
– | – | YFP-β-arrestin2-Ub: YFP-labelled β-arrestin2-ubiquitin chimera from pEYFPC1 (SEQ ID NOS:1-2) | moved into endocytic vesicles as early as 15 min | detectable with the chimeric protein | colocalize with the internalized β2AR | redistribute from the plasma membrane to endocytic vesicles | –
45 | – | CN(C)c1cccc2c(S(=O)(=O)NCCCCCN)cccc12 [MDC, monodansylcadaverine] | – | – | – | – | –
– | – | YFP-β-arrestin2: wild type β-arrestin2 tagged with YFP, comparator | – | not detectable | did not however contain any YFP-β-arrestin2 | unaltered at 30 min of isoproterenol treatment | –
– | 33±1.6 | β-arrestin2: wild type β-arrestin2 overexpressed as comparator | – | – | – | – | 6-7%
